Experimental data reported in PMC7530888 (Nucleic Acids Research, 2020).

B1: BRCT domain of MtbLigA, His-tagged (domain or fragment)
chain: SVPRTLAGLTIVVTGSLTGFSRDDAKEAIVARGGKAAGSVSKKTNYVVAGDSPGSKYDKAVELGVPILDEDGFRRLLADGPASRT
B2: GST-tagged MtbXthA (enzyme)
chain: MPDGTIDGGHPQRPASPRLRSPLLRLATWNVNSIRTRLDRVLDWLGRADVDVLAMQETKCPDGQFPALPLFELGYDVAHVGFDQWNGVAIASRVGLDDVRVGFDGQPSWSGKPEVAATTEARALGATCGGIRVWSLYVPNGRALDDPHYTYKLDWLAALRDTAEGWLRDDPAAPIALMGDWNIAPTDDDVWSTEFFAGCTHVSEPERKAFNAIVDAQFTDVVRPFTPGPGVYTYWDYTQLRFPKKQGMRIDFILGSPALAARVMDAQIVREERKGKAPSDHAPVLVDLHAG

How the values were obtained:
[1] = molecular target: B1; assay: ITC
GST-tagged MtbXthA = molecular target: B2; assay: SPR
[2] = molecular target: Full-length His-tagged MtbLigA (M. tuberculosis, UniProt P9WNV1 1-691); assay: SPR

Question: For DGQPSWSGKP [DGQ peptide (MtbXthA 104-113)], which Kd [1] is on record?
Answer: 2470 nM

Question: With YDVAHVGFD [YDV peptide (MtbXthA 75-83)] as the binder, how does the Kd [1] read?
Answer: 88500 nM

Question: For B1, which Kd (GST-tagged MtbXthA) is on record?
Answer: 71.4 nM

Question: With B2 as the binder, how does the Kd [2] read?
Answer: 67.7 nM
